In the supplement of paper PMC9170038:

Tested on: MS2 coat protein
Experiment: apparent KD of MS2 coat protein; higher = weaker reporter binding
Details: Eterna round: R107
Outline: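 In 100 mM Tris-HCl pH 7.5 with 80 mM KCl and 4 mM MgCl2, and without or with constant ligand, SNAP-549-labelled MS2 coat protein was titrated in twofold steps from 0.7 or 1.5 nM to 3 µM. Per-step times went from 0.8–1.5 h down to 10–20 min. The RNA switches were transcribed on-chip from Illumina sequencing clusters, and apparent KD is the per-design median of normalised cluster binding-curve fits.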

[1] = input ligand: theophylline 20 uM
[2] = input ligand: theophylline 2 mM
[3] = input ligand: tryptophan 2.4 mM

Sequence	apparent KD of MS2 coat protein (input ligand: arginine 13.2 mM)	apparent KD of MS2 coat protein [1]	apparent KD of MS2 coat protein [2]	apparent KD of MS2 coat protein [3]	apparent KD of MS2 coat protein (input ligand: none)
CGCGAGACGGCGGCCGCCACUUGUUGUUGGAAACUCGAGUUACAUGAGGAUCACCCAUGUCCUUAAAGGACCGGGCCGUAAGUAA [theeternabot_sameState_MS2_Trp_B_13]	99.3 nM	198 nM	219 nM		
UUUGCACAUGAGGAUCACCCAUGUACAGAUACCAGCCUCAUCUACGGCCCUUGGCAGCUGAGAUAAUGGUGACGUGAUGGGCUUU [Edaniser]	13.5 nM	17.2 nM		11.6 nM	
AAUGUAUGGCACAUGAGGAUCACCCAUGUGCGAGGACCGGUACGGCCGCCACUCGGUCAAGGGAUCUUACCUCUAUACAUUAAUG [XTryp A #22]	10.6 nM	14.7 nM	11.9 nM		
UAUAUAAUAACAGAUACCAGCGUGUUAUAAAACAUGAGGAUCACCCAUGUAGUGAUCAAGCGCCCUUGGCAGCUGGUAUUAUAUA [7.A]	123 nM	140 nM		47.6 nM	
GCCUCCAGCCGAAGGAGCGCUAGAAGGUGACAUGAGGAUCACCCAUGUGUGUGAUGUGGCUAGCAGGUAGGUCGCGGAGGAGGCA [Exclusion - Arginine B (Freestyle 22)]	53.7 nM	105 nM	74.1 nM	74.8 nM	109 nM
UAUAACAUGAGGAUCACCCAUGUAAGUGAUACCAGAUAAAUAAUAGUCCCUUGGCAGCAUAUUGGGAAAGUGUAUAAUAUAUAUU [Same State - Theophylline A (Freestyle 2)]	50.8 nM	66.1 nM		48.1 nM	
UCGUGUAUUUCGGAUACCAGUGAAAUCGAUACAUGAGGAUCACCCAUGUGAGAGGAUGUACACCCUUGGCAGCUGUAUAUAUCUG [fgfmullin]	18.7 nM	38.7 nM	24.8 nM	21.9 nM	29.1 nM
UCGGGAACAUGAGGAUCACCCAUGUCAGAAGGAGCGCUGAGAGAAGCAGGUAGGUCGCUGACGCAGGAGCUCUCUUCCUGUACGC [#22 Exclusion - Arginine A]	96.2 nM	46.4 nM	22.6 nM	15.9 nM	33.8 nM
AUCGUACCUGAUGAUACCAGCAAUUGCUCGUAACAUGAGGAUCACCCAUGUGACCAGUGAUGCCCUUGGCAGCAUGAUCGGUGCA [Same State - Theophylline B (Freestyle 20)]	45.7 nM	48.9 nM		45.8 nM	
GAUAGUUGAAGGGAUACCAGCCUGGACAUGAGGAUCACCCAUGUAGCAUGUUUGAAACUGGGCCCUUGGCAGCCCAUAUUGUGUA [#11 Same State - Theophylline B]	16.6 nM	25.4 nM		22.8 nM	
AAUGAGUGGUGGUCAAACAUGGGUGAUCAACGAGGACCGGUACGGCCGCCACUCGAUAACAUGAGGAUCACCCAUGUAAUAAUAA [|T'-M'-Trp-Ms2|_Design9]	55.5 nM	492 nM	683 nM		
AAGCCCAGGACGGCCGCCACUGUAAAAUGGUGGUUCGCCUGUAAGAACAUGAGGAUCACCCAUGUCAGGACCGGGUCCACGAGUU [theeternabot_exclusion_MS2_Trp_B_46]	17.1 nM	23.8 nM	15.8 nM		
AAGCUUCGCAUAGGAAAACUAUGUGAAGCUCGAGGACCGGUACGGCCGCCACUCGUCCUCAACAUGAGGAUCACCCAUGUAAUAA [Mat - Exclusion - Trytophan A - D2]	20.7 nM	28.6 nM	25.9 nM		
AGCACUGUGACGGCCGCCACUAUAUUAGGGUGGUAGGGUUCAUAAAUACAUGAGGAUCACCCAUGUAGGACCGGGUCUCAGUGCA [Omei Trp Exc B A v1]	11.6 nM	15.9 nM	10 nM	21.2 nM	12.1 nM
